Results as given in patent publication US20120316071A1 (published 2012).

Assays:
[1] = target: T1, rHuman HGF R/c-MET/Fc Chimera (human, UniProt P08581 25-932); assay: ECL Multispot (MSD) assay, antigens spotted on plate, 10 nM Fab; blank of this well 254
T1 construct: Bought from R&D Systems; also called HGF R/Fc; not shown: Fc part of a bought chimera

[2] = target: T2, rHuman IGF-1 sR (insulin-like growth factor-1 soluble receptor) (human, UniProt P08069 31-932); assay: as above
T2 construct: Bought soluble receptor

[3] = target: T3, rHuman P-Cadherin/Fc Chimera (human, UniProt P22223 108-654); assay: as above
T3 construct: Bought from R&D Systems; not shown: Fc part of a bought chimera

rHuman EGF R/Fc Chimera [4] = target: T4, rHuman EGF R/Fc Chimera (human, UniProt P00533 25-645); assay: as above
T4 construct: Bought from R&D Systems; not shown: Fc part of a bought chimera

rHuman ErbB2/Fc Chimera [5] = target: T5, rHuman ErbB2/Fc Chimera (human, UniProt P04626 23-652); assay: as above
T5 construct: Bought from R&D Systems; not shown: Fc part of a bought chimera

[6] = target: T6, Recombinant Human DLL4 (delta-like protein 4) (human, UniProt Q9NR61 27-524); assay: as above
T6 construct: Bought recombinant protein; also called rHuman DLL4

[7] = target: T1, rHuman HGF R/c-MET/Fc Chimera; assay: ECL Multispot (MSD) assay, antigens spotted on plate, 10 nM Fab; blank of this well 184
[8] = target: T2, rHuman IGF-1 sR (insulin-like growth …); assay: as above
[9] = target: T3, rHuman P-Cadherin/Fc Chimera; assay: as above
rHuman EGF R/Fc Chimera [10] = target: T4, rHuman EGF R/Fc Chimera; assay: as above
rHuman ErbB2/Fc Chimera [11] = target: T5, rHuman ErbB2/Fc Chimera; assay: as above
[12] = target: T6, Recombinant Human DLL4 (delta-like …); assay: as above
[13] = target: T7, rHuman HGF R/c-MET/Fc Chimera, CF (R&D Systems Cat#358-MT/CF) (human, UniProt P08581 25-932); assay: ECL multispot (MSD), antigen spotted; blank spot of this well 271
T7 construct: Bought protein; also called HGF R/Fc; hepatocyte growth factor receptor

[14] = target: T8, rHuman Erythropoietin R/Fc Chimera, CF (R&D Systems Cat#963-ER) (human, UniProt P19235 25-250); assay: as above
T8 construct: Bought protein; also called EPO R; EPO R/Fc
T8 sequence (looked up): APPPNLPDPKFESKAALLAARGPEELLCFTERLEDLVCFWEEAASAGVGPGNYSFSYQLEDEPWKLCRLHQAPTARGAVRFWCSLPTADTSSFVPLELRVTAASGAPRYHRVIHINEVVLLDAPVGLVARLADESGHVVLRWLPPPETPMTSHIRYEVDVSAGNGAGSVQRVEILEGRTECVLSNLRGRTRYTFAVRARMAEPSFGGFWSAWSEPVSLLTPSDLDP

[15] = target: T9, rHuman IGF-1 sR, CF (R&D Systems Cat#391-GR) (human, UniProt P08069 31-932); assay: as above
T9 construct: Bought soluble receptor; also called insulin-like growth factor-1 soluble receptor

[16] = target: T10, rHuman Notch-1/Fc Chimera, CF (R&D Systems Cat#3647-TK) (human, UniProt P46531 19-526); assay: as above
T10 construct: Bought protein

[17] = target: T11, rHuman ErbB2/Fc Chimera, CF (R&D Systems Cat#1129-ER) (human, UniProt P04626 23-652); assay: as above
T11 construct: Bought protein; also called human epidermal growth factor 2 receptor

[18] = target: T12, rHuman EGF R/Fc Chimera, CF (R&D Systems Cat#344-ER) (human, UniProt P00533 25-645); assay: as above
T12 construct: Bought protein; also called epidermal growth factor receptor

[19] = target: T13, Recombinant Human DLL4 (R&D Systems Cat#1506-D4/CF) (human, UniProt Q9NR61 27-524); assay: as above
T13 construct: Bought recombinant protein; also called delta-like protein 4; rHuman DLL4

[20] = target: T14, rHuman P-Cadherin/Fc Chimera, CF (R&D Systems Cat#861-PC) (human, UniProt P22223 108-654); assay: as above
T14 construct: Bought protein

[21] = target: T15, rHuman CD44/Fc Chimera, CF (R&D Systems Cat#3660-CD) (human, UniProt P16070 21-220); assay: as above
T15 construct: Bought protein

[22] = target: T7, rHuman HGF R/c-MET/Fc Chimera, CF (R&D …); assay: ECL multispot (MSD), antigen spotted; blank spot of this well 209
[23] = target: T8, rHuman Erythropoietin R/Fc Chimera, CF …; assay: as above
[24] = target: T9, rHuman IGF-1 sR, CF (R&D Systems …); assay: as above
[25] = target: T10, rHuman Notch-1/Fc Chimera, CF (R&D …); assay: as above
[26] = target: T11, rHuman ErbB2/Fc Chimera, CF (R&D …); assay: as above
[27] = target: T12, rHuman EGF R/Fc Chimera, CF (R&D …); assay: as above
[28] = target: T14, rHuman P-Cadherin/Fc Chimera, CF (R&D …); assay: as above
[29] = target: T15, rHuman CD44/Fc Chimera, CF (R&D Systems …); assay: as above
Recombinant Human DLL4 [30] = target: T16, Recombinant Human DLL4 (human, UniProt Q9NR61 27-524); assay: ECL (MSD) multispot binding assay, DLL4 spotted on plate, Fab in solution
T16 construct: also called delta-like protein 4; rHuman DLL4

Recombinant Human DLL4 [31] = target: T16, Recombinant Human DLL4; assay: ECL (MSD) multispot binding assay, DLL4 signal over blank spot
[32] = target: T7, rHuman HGF R/c-MET/Fc Chimera, CF (R&D …); assay: ECL multispot (MSD), antigen spotted; blank spot of this well 273
[33] = target: T8, rHuman Erythropoietin R/Fc Chimera, CF …; assay: as above
[34] = target: T9, rHuman IGF-1 sR, CF (R&D Systems …); assay: as above
[35] = target: T10, rHuman Notch-1/Fc Chimera, CF (R&D …); assay: as above
[36] = target: T11, rHuman ErbB2/Fc Chimera, CF (R&D …); assay: as above
[37] = target: T12, rHuman EGF R/Fc Chimera, CF (R&D …); assay: as above
[38] = target: T14, rHuman P-Cadherin/Fc Chimera, CF (R&D …); assay: as above
[39] = target: T15, rHuman CD44/Fc Chimera, CF (R&D Systems …); assay: as above

T7 sequence (P08581 25-932, change not shown): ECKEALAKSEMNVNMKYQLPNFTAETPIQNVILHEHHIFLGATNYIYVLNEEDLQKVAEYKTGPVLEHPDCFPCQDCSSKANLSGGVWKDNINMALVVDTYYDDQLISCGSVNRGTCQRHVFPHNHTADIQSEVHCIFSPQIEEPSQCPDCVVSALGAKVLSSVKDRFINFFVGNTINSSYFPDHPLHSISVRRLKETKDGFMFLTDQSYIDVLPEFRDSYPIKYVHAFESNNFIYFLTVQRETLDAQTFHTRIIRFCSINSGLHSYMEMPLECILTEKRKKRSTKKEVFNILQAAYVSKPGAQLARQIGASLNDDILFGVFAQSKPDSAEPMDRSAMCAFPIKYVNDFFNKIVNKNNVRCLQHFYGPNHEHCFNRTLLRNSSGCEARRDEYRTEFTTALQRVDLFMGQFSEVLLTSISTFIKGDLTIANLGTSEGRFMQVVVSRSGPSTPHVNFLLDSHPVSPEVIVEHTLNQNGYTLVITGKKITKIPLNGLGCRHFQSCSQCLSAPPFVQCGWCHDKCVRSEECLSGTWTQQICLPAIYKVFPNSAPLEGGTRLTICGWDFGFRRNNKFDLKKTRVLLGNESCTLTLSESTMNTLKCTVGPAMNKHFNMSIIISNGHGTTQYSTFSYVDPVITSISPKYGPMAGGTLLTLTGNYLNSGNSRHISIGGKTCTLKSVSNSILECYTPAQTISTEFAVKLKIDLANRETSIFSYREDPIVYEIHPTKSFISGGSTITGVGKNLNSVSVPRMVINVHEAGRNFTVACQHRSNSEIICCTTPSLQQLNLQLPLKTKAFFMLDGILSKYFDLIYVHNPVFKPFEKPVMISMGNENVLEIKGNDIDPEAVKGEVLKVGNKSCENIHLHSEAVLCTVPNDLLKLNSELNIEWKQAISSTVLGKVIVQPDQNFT
T1 sequence (P08581 25-932, change not shown): as above

B1: Fab VH1-46_IGHD6-6*01_IGHJ1*01 S102A/S103P/S104F/H111F & L6_IGKJ1*01 (Fab, V domains shown)
VH: QVQLVQSGAEVKKPGASVKVSCKASGYTFTSYYMHWVRQAPGQGLEWMGIINPSGGSTSYAQKFQGRVTMTRDTSTSTVYMELSSLRSEDTAVYYCAREEYAPFSAEYFQFWGQGTLVTVSS
VL: not shown
notes: Fab made in E. coli; VH was cloned into Plasmid A (CH1, His6 and Flag tags) and VL into Plasmid C (kappa constant region); also called APFF; H:APFF & L:wt
**Q.** For B1, which ECL signal [1] is on record?
**A.** Its ECL signal is 176.

**Q.** And the ECL signal [2]?
**A.** Its ECL signal is 306.

**Q.** And the ECL signal [3]?
**A.** The ECL signal was 138.

**Q.** What about the ECL signal (rHuman EGF R/Fc Chimera [4]) of the same binder?
**A.** The ECL signal was 209.

**Q.** And the ECL signal (rHuman ErbB2/Fc Chimera [5])?
**A.** The ECL signal was 351.

**Q.** And the ECL signal [6]?
**A.** Its ECL signal is 148000.

**Q.** And the ECL signal [7]?
**A.** The ECL signal was 263.

**Q.** What about the ECL signal [8] of the same binder?
**A.** Its ECL signal is 173.

**Q.** And the ECL signal [9]?
**A.** Its ECL signal is 240.

**Q.** What about the ECL signal (rHuman EGF R/Fc Chimera [10]) of the same binder?
**A.** Its ECL signal is 409.

**Q.** What about the ECL signal (rHuman ErbB2/Fc Chimera [11]) of the same binder?
**A.** Its ECL signal is 322.

**Q.** And the ECL signal [12]?
**A.** Its ECL signal is 132000.

B2: Fab VH1-46_IGHD6-6*01_IGHJ1*01 S102A/S103P/S104F (APF) & L6_IGKJ1*01 R91P (Fab, V domains shown)
VH: QVQLVQSGAEVKKPGASVKVSCKASGYTFTSYYMHWVRQAPGQGLEWMGIINPSGGSTSYAQKFQGRVTMTRDTSTSTVYMELSSLRSEDTAVYYCAREEYAPFSAEYFQHWGQGTLVTVSS
VL: EIVLTQSPATLSLSPGERATLSCRASQSVSSYLAWYQQKPGQAPRLLIYDASNRATGIPARFSGSGSGTDFTLTISSLEPEDFAVYYCQQPSNWPPWTFGQGTKVEIKR
notes: Fab made in E. coli: VH cloned into Plasmid A (CH1, His6 and Flag tags), VL into Plasmid C (kappa CL); also called APF / R91P
**Q.** With B2 as the binder, how does the ECL signal [13] read?
**A.** Its ECL signal is 273.

**Q.** And the ECL signal [14]?
**A.** Its ECL signal is 275.

**Q.** What about the ECL signal [15] of the same binder?
**A.** The ECL signal was 199.

**Q.** And the ECL signal [16]?
**A.** The ECL signal was 228.

**Q.** What about the ECL signal [17] of the same binder?
**A.** The ECL signal was 333.

**Q.** What about the ECL signal [18] of the same binder?
**A.** Its ECL signal is 216.

**Q.** What about the ECL signal [19] of the same binder?
**A.** Its ECL signal is 1280.

**Q.** What about the ECL signal [20] of the same binder?
**A.** Its ECL signal is 296.

**Q.** And the ECL signal [21]?
**A.** Its ECL signal is 252.

B3: Fab VH1-46_IGHD6-6*01_IGHJ1*01 S102A/S103P/S104F (APF) & L6_IGKJ1*01 R91G (Fab, V domains shown)
VH: QVQLVQSGAEVKKPGASVKVSCKASGYTFTSYYMHWVRQAPGQGLEWMGIINPSGGSTSYAQKFQGRVTMTRDTSTSTVYMELSSLRSEDTAVYYCAREEYAPFSAEYFQHWGQGTLVTVSS
VL: EIVLTQSPATLSLSPGERATLSCRASQSVSSYLAWYQQKPGQAPRLLIYDASNRATGIPARFSGSGSGTDFTLTISSLEPEDFAVYYCQQGSNWPPWTFGQGTKVEIKR
notes: Fab made in E. coli: VH cloned into Plasmid A (CH1, His6 and Flag tags), VL into Plasmid C (kappa CL); also called APF / R91G
**Q.** Which ECL signal [22] does the source give for B3 here?
**A.** Its ECL signal is 239.

**Q.** What about the ECL signal [23] of the same binder?
**A.** Its ECL signal is 306.

**Q.** What about the ECL signal [24] of the same binder?
**A.** Its ECL signal is 260.

**Q.** And the ECL signal [25]?
**A.** Its ECL signal is 170.

**Q.** What about the ECL signal [26] of the same binder?
**A.** The ECL signal was 236.

**Q.** What about the ECL signal [27] of the same binder?
**A.** The ECL signal was 271.

**Q.** What about the ECL signal [28] of the same binder?
**A.** Its ECL signal is 235.

**Q.** What about the ECL signal [29] of the same binder?
**A.** The ECL signal was 163.

B4: Fab VH1-46_IGHD6-6*01_IGHJ1*01 S102A/S103P/S104F/H111F (APFF) & L6_IGKJ1*01 S92T (Fab, V domains shown)
VH: QVQLVQSGAEVKKPGASVKVSCKASGYTFTSYYMHWVRQAPGQGLEWMGIINPSGGSTSYAQKFQGRVTMTRDTSTSTVYMELSSLRSEDTAVYYCAREEYAPFSAEYFQFWGQGTLVTVSS
VL: EIVLTQSPATLSLSPGERATLSCRASQSVSSYLAWYQQKPGQAPRLLIYDASNRATGIPARFSGSGSGTDFTLTISSLEPEDFAVYYCQQRTNWPPWTFGQGTKVEIKR
notes: Fab from E. coli; VH in Plasmid A (CH1, His6 and Flag tags), VL in Plasmid C (kappa CL); also called APFF & S92T
**Q.** What does the source list for B4?
**A.** ECL signal (Recombinant Human DLL4 [30]): 54100; Signal/Blank (Recombinant Human DLL4 [31]): 194

B5: Fab VH1-46_IGHD6-6*01_IGHJ1*01 S102A/S103P/S104F (APF) & L6_IGKJ1*01 R91L (Fab, V domains shown)
VH: QVQLVQSGAEVKKPGASVKVSCKASGYTFTSYYMHWVRQAPGQGLEWMGIINPSGGSTSYAQKFQGRVTMTRDTSTSTVYMELSSLRSEDTAVYYCAREEYAPFSAEYFQHWGQGTLVTVSS
VL: EIVLTQSPATLSLSPGERATLSCRASQSVSSYLAWYQQKPGQAPRLLIYDASNRATGIPARFSGSGSGTDFTLTISSLEPEDFAVYYCQQLSNWPPWTFGQGTKVEIKR
notes: Fab made in E. coli: VH cloned into Plasmid A (CH1, His6 and Flag tags), VL into Plasmid C (kappa CL); also called APF / R91L
**Q.** B5 was tested. Which ECL signal [32] did it give?
**A.** The ECL signal was 255.

**Q.** What about the ECL signal [33] of the same binder?
**A.** Its ECL signal is 459.

**Q.** And the ECL signal [34]?
**A.** Its ECL signal is 382.

**Q.** What about the ECL signal [35] of the same binder?
**A.** Its ECL signal is 383.

**Q.** What about the ECL signal [36] of the same binder?
**A.** Its ECL signal is 526.

**Q.** And the ECL signal [37]?
**A.** Its ECL signal is 367.

**Q.** And the ECL signal [38]?
**A.** Its ECL signal is 437.

**Q.** What about the ECL signal [39] of the same binder?
**A.** Its ECL signal is 236.
